Test: yeast display, Sf9 membrane polyspecificity reagent, FACS + sequencing; frameworks hold sequencing errors
Procedure, shortened: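 Nanobodies came from a synthetic yeast display library in Saccharomyces cerevisiae BJ5465, induced with galactose for 36–48 hours and stained for 1 hour at 4 °C with 10% biotinylated, detergent-solubilized Sf9 membrane reagent. Cells were enriched on streptavidin microbeads and then FACS-sorted, with low and high (top ~1%) gates set on anti-HA fluorescence for expression and streptavidin fluorescence for reagent binding. Each polyreactivity label reflects the gate a clone came from. Genes were amplified by colony PCR, sequenced by MiSeq 2 × 250 and filtered by CDR length.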

Row | Sequence | polyreactivity (PSR sort gate)
1 | QVHLVESGGGLVQAGGSLRLSCAASGLIFVFYAMGWYRQAPGKERELVAAISRSGTSTYADSVKGRFTISRDNAKNTVYLQMNSLKPEDTAVYYCNAYRYYSPDGYWGQGTHVTVSS | low polyreactivity
2 | HVQLVESGGGLVQAGGSLRLSCAASGFIFKPYDMGLYRQAPGKERELVAAISWTGTSTYYADSVKGRFTISRDNAKNTVYLQINSLKPEDTAVFYCAKRWSAGAQHGFDYWGQGTQVTLSS | low polyreactivity
3 | QVQLVESGGGLVQAGGSLRLSCAASGGIFRQYAMGWYRQAPGKERELVAAISYNTGSTYYADSVKWRFTISRDNAKNTVYLQMNSLKPEDTAVYYCAKDIVIPATYVEYDYWGKGTQVTVSS | low polyreactivity
4 | QVQLVESGGGLVQAGGSLRLSCAASGSTFLSNAMGWYRPAPGKERELVAAITTSGTSTFDADSVKGRFTISRDNAKTTVYLQMNSLKPEDTAVYCAKDYLPYLHFVAPSTGDYDYWGQGTQVTVSS | low polyreactivity
5 | QVQLVESGGGLVQAGGSLRLSCAASGFTFRRYAMGWYRQAPGKERELVAAISASGGNTYYADSVKGRFTISRDNAKNTVYLQMNSLKPEDTAVYYCATDWTVRYDYWGQGTQVTVSS | high polyreactivity
6 | QVQLVESGGGLVQAGGSLRLSCAASGRIFGGYTMGWYRQAPGKEREFVAAITSSGGSTYYADSVKGRLTISRDNAKNTVYLQMNSLKPEDTAVYYCAVADYYDDYDYWGQGTQVTVSS | low polyreactivity
7 | QVQLVESVGGLVQAGGSLRLSCAASGSIFWFYAMGWYRQAPGKVRELVAAITSTGGTYYADSVKGRFTISRDNAKNTVYLQMNSLKPEDTSVYYCAADRFGVQGAYLYDYWGQGTQVTVSS | low polyreactivity
8 | QVQLVESGGGLVQAGGSLRLSCAASGSIFPPNAMGWYRQAPGKERELVAAISRRGGSTYYADSVKGRFTISRDNAKNTVYLQMNSLKPEDTAVYYCAARGGQMEYWGQGTQVTVSS | high polyreactivity
9 | QVQLVESGGGLVQAGGSLRLSCAASGRTFPPYAMGWYRQAPGKERELVAANSWSGGSTYYADSVKGRFTISRDNAKNTVYLQMNSLKPEDTAVYYCAKATRDRGRYYYWGQGTQVTVSS | high polyreactivity
10 | QVHLVESGGGLVQAGGSLRLSCAASGITFWGNAMGWYRHAPGKEREFVARINWSGGRTYYAESVKGRFTISRDNAKITVYLQMKSLKPEDTAVYYCAATSLIYGYRTYVYWGQGTQVTVSS | high polyreactivity
11 | QVQLVESGVGLVQAGGSLRLSCASSGILVYNAMAWYRQAPGKERELVAAISARGGRTYYADSVKGRFTISRDNAKNTVYLQMNSLKPEDTAVYYCATLETTGVNYWGQGTQVTVSS | high polyreactivity
12 | QVQLVESGGGLVQAGGSLRLSCAASGFTFARYAMGWYRQAPGNERELVAAITRRGGSTYYADSVKGRFTISRDNAKDTVYLQMNSLKPEDTAVYYCAADSSSGSDYWGQGTQVTVSS | high polyreactivity
13 | QVQLVESGGGLVQAGGSLRLSCAASGLTFKTYAMGWYRQAPGKERELVAAISRSGGSTSYADSVKGRFTISRDNAKNTVYLQLNSLIPEDTEVYYCAAKTYEPRKYDYWGQGTQVTVSS | high polyreactivity
14 | QVQLVESGGGLVQAGGSLRLSCAASGRIFYSNVMGWYRQAPGKERELVAAITSGGSTYYADSVKGRFTISRDNAKNTVYLQMNSLKPEDTAVYYCAARVAFRPRGYIRYYYWGQGTQVTVSS | high polyreactivity
15 | QVQLVESGGGLVQAGGSLRLSCAASGSIFPTNAMGWYRQAPGKERELVAAITGNGGRTYYADSVKGRFTISRDNAKNTVYLQMNSLKPEDTAVYYCAALTYASNRYGYWGQGTQVTVSS | high polyreactivity
16 | QVQLVESGGGLVQAGGSLRLSCAASGRIFGGYAMGWYRQAPGKERELVAVISGRGGSTYYADSVKGRFTISRDNAMNTVYLQMNSLKPEDTAVYYCTVYRRIQRYGPQSYDYWGQGTQVTVSS | high polyreactivity
17 | QVQLVESGGGLVQAGGSLRLSCAASGFTFDSNAMGWYRQAPGKERELVAAISTGGSTYYADSVKGRFTISRDNAKNTVYLQMNSLKPEDTAVYYCARDPPYPDTWYGYWGQGTQVTVSS | low polyreactivity
18 | QVQLVESGGGLVQAGGSLRLSCAASGTLSSYAMGWYRQAPGKERELVAAISLSGGSTYADSVKGRFTISRDNAKNTVYLQMNSLKPEDTAVYYCAKDWDVDITWSFSIYNYWGQGTQVTVSS | low polyreactivity
19 | QVQLVESGGGLDQAGGSLRLSCAASGSIFDDYAMGWYRQAPGKERELVAAISWSGGRTYYADSVKGRFTISRDNAKNTVYLQMNSLKPEDTAVYYCAATTGVRSRRYYYWGQGTQVTVSS | low polyreactivity
20 | QVQLVESGGGLVHAGGSLRLSCAASGSTFGANAMGWYRQAPGKEREFVAAISGSGTTTYYADSVKGRFTISRDNAKNSVYLQMNSLKPEDTAVYYCAKTRKGHWLEYWGQGTQVTVSS | low polyreactivity
21 | QVQLVESGGGLVQAGGSLRLSCAASGLIFVDNAMGWYRQAPGKERELVAAIDSGGSTNYADSVKGRFTISRDNAKNTVYLQMNSLKPEDTAVYYCAADWIYAPWYYQESVEYYYWGQGTQVTVSS | low polyreactivity
22 | QVQLVESGGGLVQAGGSLRLSCAASGSIFGNNAMGWYRQAPGKERELVAAISSGGSTNYADSVKGRFTISRDNAKNTVYLQMNSLKPEDTAVYYCATYYFYPSWYLLYGEYNYWGQGTQVTVSS | low polyreactivity

Row | Sequence | polyreactivity (PSR sort gate)
23 | QVQLVESGGGLVQAGGSLRLSCASSGFTFKDYAMGWYRQAPGKERELVAAISYSGGSTYYADSVKGRFTLSRDNAKNTVYLQMNSLKPEDTAVYYCARYFRRSAIYTRPRMDYWGQGTQVTVSS | high polyreactivity
24 | QVQLVESGGGLVQAGGSLRLSCAASGRTFYFYAMGWYRQAPGKERELVAGISWRGVSTYYADSVKGRFTISRDNAKNTVYLQMNSLKPEDTAVYYCAADIGRHTDNYDPRYDYWGQGTQVTVSS | low polyreactivity
25 | QVQLLESGGGIVQAGGSLRLSCGASGSTFTLNAMGWYRQAPGTEREFVADISWSSGRTYYADSVKGRFTISRDNAKNTVYVQMNSLKQEDTAVYYCATDDFWNVKFYAYYPEFDYWGQGTQVNVSS | low polyreactivity
26 | QLQLVESGGGLDQAGGSLRLSCAASGGTFFKNAMGWYRQAPGNERELVAVIDTISTSTYYAESVKGRFTISRDNAKNTVYLQMNSLKPEDTAVYYCAAEYGPGLTEGLYYYWGQGTQVTVSS | high polyreactivity
27 | QVQLVESAGGLVQAGGSLRLSCAASGIIFTSNTMGWYRQAPGKEREFVASINWNGSSTYADSVKGRFTISRDNAKNTVYLQMNSLKPEDTAVYYCAADWLGYQYGYWGQGTQVTVSS | low polyreactivity
28 | QVQLVESGGGLVQAGGSLRLSCAASGRIFNRYAMGWYRQAPGKERELVAAITTSADSTYADSVKGRFTISRDNAKNTVYLQMNSLKPEDTAVYYCNVASRQGSTYDYWGQGTQVTVSS | high polyreactivity
29 | QVQLVESGGGLVQAGGSLRLSCAASGIIYITNAMGWYRQAPGKERELVAAISSTVSTNYADSVKGRFTISRDNAKNTVYLQMNSLKPEDTAVYYCAAEWGLTQGESIYDYWGQGTQVTVSS | low polyreactivity
30 | QVQLVESGGGLVQAGGSLRLSCAASGRTFEVYAMGRYRQPPGKERELVATITYSGGITYYADSVKGRFTISRDNAKNTVYLQMNSLKPEYTAVYYPICVGGDYDYWGQGTQVTVSS | low polyreactivity
31 | QVQLVESGGGLVQAGGSLRLSCAASGRIFRSYAMGWYRQAPGKERELVAAISRSGGSTYYADSVKGRFTISRDNAKNTVYLQMNSLKPEDTAVYYCAGVYTYPLGYYHYTYDYWGQGTQVTVSS | low polyreactivity
32 | QVQVVESGGGLVQAGGSLRLSCAASGRIFGYNAMGWYRQAPGKERELVAAISSGGSTYYADSVKGRFTISRDNAKNTVYLLMHSLKPEDTAVYYCAAEDYPPYPTVYDYWGQGTQVTVSS | low polyreactivity
33 | QVQLVESGGGLVQAGGSRRLSCAASGRTFVGTAMGWSRQAPGKERELVAAMSGDGSTNYADSVKGRFTISRDNAKNTVYLQMNSLKPEDTAVYYCAADGVTRYYQRTYTRYGYWGQGTQVTVSS | low polyreactivity
34 | QVQLVESGGGLVQAGGSLRLSCAASVSIFDLYAMRWYIQAPGKERELVAAISWSDSRTYYADSVKGRFTISRDNATNTVYLQKNSLKPEDTAVYYCAADYRYPDNYGGYDYWGQGTQLTVSS | low polyreactivity
35 | QVQLVESGGGLVQAGGSLRLSCAASGSIFLYYAMGWYRQAPGKERELVAAISGRAGSTYYADSVKGRFTISRDNAKNTVYLQMNSLKPEDTAVYYCAAGYWQGYPGFKYYWGQGTQVTVSS | low polyreactivity
36 | QVQLVESGGGLVQAGGSLRLSCAAFGFTFNSYAMGWNRQAPGKERELVAGITSSGGGTYYADSVKGRFTISRDNAKNTVYLQMNSLKPEDTAVYYCNTYSYLFSRYGFWGQGTQVTVSS | high polyreactivity
37 | QVQLVESGGGVFQAGGSLRLSCAASGSIYAFNPMGWYRQAPGKETEFVASIRSSTGRTYYADSVKGRFTISRDNAKNTVYLQMNSLKPEDTAVYYCAADSPEKPPRRWYITWPDGYWGQGTQVTVSS | low polyreactivity
38 | QVQLVESGGGLVQAGGSLRLSCAASGRIFYHYAMGWYRQAPGKERELVAVIRSTGSTNYADSVKGRFTISRDNAKNTVYLQMNSLKPEDTAVYYCAVRRATYSYWYFNGGYWGQGTQVTVSS | high polyreactivity
39 | QVQLVESGGGLVKAGGSLRLSCAASGRTFRYYDMGWYRQAPGKESELVAAIRTRGASTYYADSVKGRFTISRDNAKNTVYLQMNSLNPEDTAVYYCAKRAHFSSARHVYYIYDYWGQGTQVTVSS | low polyreactivity
40 | QVQLQESGRRPGAAGGSPRISCAASGYIFWVAVMGRYRQAPGKDRELVASIGFGCTTYYADSVKCRFTISRDNAKNSVYLQMISLKPEDTAVYYCAAPHYDWGELDYWGQGTQVPVSS | low polyreactivity
41 | QVHLVESGGGLVQAGGSLRLSCAASGLTFYSNAMGWYRQAPGKERELVARISTGGSTYADSVKGRFTISRDNAKNTVYLQMNSLKPEDTAVYYCAKLPPRGIDDEYWGQGNQVTVSS | low polyreactivity
42 | QVQLVESGGGLVQAGGSLRLSCAASGRTFSRNAMGRYRQAPGKVRELVATISSSGVRTYYADSVKGRFTMSRDNAKNTVYLQMNSLKPEETAVYYWAAAWRYYSAASGYDYWGQGTLVTVSS | low polyreactivity
43 | QVQLVESGGGLVQAGGSLRLSCAASGSTFAKYAMGWYRQAPGKERELVATITDGGSTYYADSVKGRFTISRDNAKNTVYLQMNRMKPEDTAVYYCNAVILYWLYTSYVAGWPYDYWGQGTQVTVSS | high polyreactivity
